Laboratory results: US20250382344A1, “Soluble GLP1/GIP/NPY2 Receptor Triple Agonists” (Boehringer Ingelheim International GmH, priority 2024, published 2025)
*1 amine or outer side, *2 acyl side, *3 side chain or, on linkers, in order; H or OH if unused. Where no end group is shown, it is not given here. Side-chain parts run from the residue outwards. [ ]: non-standard residue; d: D form. The star is where a group is joined. γDab = gamma-linked diaminobutyric acid unit, O=C([C@H](CCN[*:1])N[*:3])[*:2]; C20 diacid = O=C(O)CCCCCCCCCCCCCCCCCCC(=O)*; C18 diacid = O=C(O)CCCCCCCCCCCCCCCCC(=O)*; γGlu = O=C(O)[C@H](CCC(=O)[*:2])N[*:1]; εLys = N[C@@H](CCCCN[*:1])C(=O)[*:2]; dtOrn = not defined here; AEEA = NCCOCCOCC(=O)O; Aib = CC(C)(N)C(=O)O

Tests used:
Assay in all cases: cell-based or functional assay
human GLP-1 receptor = human GLP-1 receptor (human, UniProt P43220 24-463)
[1] = biological target: T1, human neuropeptide Y2 receptor (human, UniProt P49146 1-381)
T1 sequence (looked up): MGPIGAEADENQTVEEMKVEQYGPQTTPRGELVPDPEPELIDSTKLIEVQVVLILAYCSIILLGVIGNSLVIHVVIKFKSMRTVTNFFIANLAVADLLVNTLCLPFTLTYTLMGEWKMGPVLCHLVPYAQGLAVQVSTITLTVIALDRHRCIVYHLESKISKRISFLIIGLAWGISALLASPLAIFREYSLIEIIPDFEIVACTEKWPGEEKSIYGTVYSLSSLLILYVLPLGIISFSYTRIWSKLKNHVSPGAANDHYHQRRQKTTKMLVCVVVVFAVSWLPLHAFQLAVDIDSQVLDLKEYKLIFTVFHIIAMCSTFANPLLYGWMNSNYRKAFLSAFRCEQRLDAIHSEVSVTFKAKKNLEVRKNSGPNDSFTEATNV

human GIP receptor = biological target: T2, human GIP receptor (human, UniProt P48546 22-466)
T2 sequence (looked up): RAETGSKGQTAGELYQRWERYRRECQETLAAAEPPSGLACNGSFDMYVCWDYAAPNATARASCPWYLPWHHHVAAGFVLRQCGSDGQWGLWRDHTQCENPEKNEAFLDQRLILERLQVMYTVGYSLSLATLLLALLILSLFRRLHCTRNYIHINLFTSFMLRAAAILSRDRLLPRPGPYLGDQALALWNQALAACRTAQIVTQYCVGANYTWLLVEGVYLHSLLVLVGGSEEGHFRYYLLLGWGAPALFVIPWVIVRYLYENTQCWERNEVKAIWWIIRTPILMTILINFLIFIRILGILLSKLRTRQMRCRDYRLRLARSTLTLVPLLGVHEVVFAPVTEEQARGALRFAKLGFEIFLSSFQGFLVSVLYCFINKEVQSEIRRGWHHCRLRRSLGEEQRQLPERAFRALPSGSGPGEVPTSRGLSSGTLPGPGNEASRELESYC

Binder | EC50, CreLuc reporter, 100% hP (human GLP-1 receptor) | EC50, CreLuc reporter, 0.5% hP [1] | EC50, CreLuc reporter, 0.5% hP (human GLP-1 receptor) | EC50, CreLuc reporter, 0.5% hP (human GIP receptor) | EC50, CreLuc reporter, 100% hP (human GIP receptor) | EC50, CreLuc reporter, 100% hP [1]
Y[Aib]EGTFTSDYSI[Aib]LEKQAQ[Aib]AFVRHLINK([dtOrn-γGlu-γGlu-γGlu-γGlu-γGlu-γGlu-C18 diacid])[Aib]TRQRY-NH2 (reading uncertain) [Compound 87] | 5.6 nM | 16.5 nM |  |  |  | 
Y[Aib]EGTFTSDYSI[Aib]LEKQAQ[Aib]AFVRHLINK([γDab-γGlu-γGlu-γGlu-γGlu-γGlu-γGlu-C18 diacid])[Aib]TRQRY-NH2 [Compound 120] | 4 nM | 23.9 nM |  |  |  | 
Y[Aib]EGTFTSDYSI[Aib]LEKEAQ[Aib]EFVRHLINK([γGlu-γGlu-γGlu-γGlu-C18 diacid])[Aib]TRQRY-NH2 (N-terminus assumed; SMILES CC[C@H](C)[C@H](NC(=O)[C@H](CC(C)C)NC(=O)[C@H](Cc1c[nH]cn1)NC(=O)[C@H](CCCNC(=N)N)NC(=O)[C@@H](NC(=O)[C@H](Cc1ccccc1)NC(=O)[C@H](CCC(=O)O)NC(=O)C(C)(C)NC(=O)[C@H](CCC(N)=O)NC(=O)[C@H](C)NC(=O)[C@H](CCC(=O)O)NC(=O)[C@H](CCCCN)NC(=O)[C@H](CCC(=O)O)NC(=O)[C@H](CC(C)C)NC(=O)C(C)(C)NC(=O)[C@@H](NC(=O)[C@H](CO)NC(=O)[C@H](Cc1ccc(O)cc1)NC(=O)[C@H](CC(=O)O)NC(=O)[C@H](CO)NC(=O)[C@@H](NC(=O)[C@H](Cc1ccccc1)NC(=O)[C@@H](NC(=O)CNC(=O)[C@H](CCC(=O)O)NC(=O)C(C)(C)NC(=O)[C@@H](N)Cc1ccc(O)cc1)[C@@H](C)O)[C@@H](C)O)[C@@H](C)CC)C(C)C)C(=O)N[C@@H](CC(N)=O)C(=O)N[C@@H](CCCCNC(=O)CC[C@H](NC(=O)CC[C@H](NC(=O)CC[C@H](NC(=O)CC[C@H](NC(=O)CCCCCCCCCCCCCCCCC(=O)O)C(=O)O)C(=O)O)C(=O)O)C(=O)O)C(=O)NC(C)(C)C(=O)N[C@H](C(=O)N[C@@H](CCCNC(=N)N)C(=O)N[C@@H](CCC(N)=O)C(=O)N[C@@H](CCCNC(=N)N)C(=O)N[C@@H](Cc1ccc(O)cc1)C(N)=O)[C@@H](C)O) [Compound 100] |  |  | 0.2 nM | 0.5 nM |  | 
Y[Aib]EGTFTSDYSI[Aib]LEKQAQ[Aib]EFVRHLINK([εLys-γGlu-γGlu-γGlu-γGlu-C18 diacid])[Aib]TRQRY-NH2 [Compound 163] |  |  |  | 0.2 nM | 5.9 nM | 218 nM
YXEGTFTSDYSIXLEKQAQXAFVRHLINKXTRQRY (Aib at 2, 13, 20, 30; Lys29 epsilon-amino: C20DA-gGlu-gGlu-gGlu-gGlu-gGlu-AHX; C-terminal amide) [Compound 167] | 18.7 nM | 13.3 nM | 1 nM |  |  | 267 nM
YXEGTFTSDYSIXLEKQAQXAFVRHLINKXTRQXY (Aib at 2, 13, 20, 30; dOR at 34; Lys29 epsilon-amino: C18DA-gGlu-gGlu-gGlu-gGlu-gGlu-gGlu-eLys; C-terminal amide) [Compound 90] |  |  | 2 nM |  | 0.6 nM | 
YXEGTFTSDYSIXLEKQAEXAFVRHLINKXTRQRY (Aib at 2, 20, 30; aMeL at 13; Lys29 epsilon-amino: C20DA-gGlu-gGlu-gGlu-gGlu-gGlu-gGlu-eLys; C-terminal amide) [Compound 103] | 0.6 nM | 25.9 nM | 0.4 nM |  |  | 131 nM
YXEGTFTSDYSIELEKQAQXAFVRHLINKXTRQRY (Aib at 2, 20, 30; Lys29 epsilon-amino: C18DA-gGlu-gGlu-gGlu-gGlu-gGlu-gGlu-eLys; C-terminal amide) [Compound 160] | 27 nM | 15.5 nM | 7.1 nM |  |  | 28.5 nM
YXEGTFTSDLSIXLEKQAQXAFVRHLLNKXTRQRY (Aib at 2, 13, 20, 30; Lys29 epsilon-amino: C20DA-gGlu-gGlu-gGlu-gGlu-gGlu-gGlu-eLys; C-terminal amide) [Compound 115] | 9.8 nM | 10.1 nM | 7 nM |  |  | 107 nM
YXEGTFTSDYSIXLEKQAAXAFVRHLINKXTRQRY (Aib at 2, 13, 20, 30; Lys29 epsilon-amino: C18DA-gGlu-gGlu-gGlu-gGlu-gGlu-gGlu-eLys; C-terminal amide) [Compound 111] | 6.1 nM | 53.6 nM | 4.7 nM |  |  | 77.4 nM
YXEGTFTSDYSIXLDKQAQXAFVRHLINKXTRQRY (Aib at 2, 13, 20, 30; Lys29 epsilon-amino: C18DA-gGlu-gGlu-gGlu-gGlu-gGlu-gGlu-eLys; C-terminal amide) [Compound 105] | 3.4 nM | 19.9 nM | 0.3 nM |  |  | 49.6 nM
YXEGTFTSDYSIXLEKQAQXEFVRHLINKXTRQRY (Aib at 2, 13, 20, 30; Lys29 epsilon-amino: C18DA-gGlu-gGlu-gGlu-gGlu-gGlu-gGlu-eLys; C-terminal amide) [Compound 145] | 1.8 nM |  | 0.5 nM |  |  | 94.2 nM
YXEGTFTSDYSIXLEKQAQXAFVRHLINKXTRQRY (Aib at 2, 13, 20, 30; Lys29 epsilon-amino: C18DA-gGlu-gGlu-gGlu-gGlu-gGlu-gGlu-eLys; C-terminal amide) [Compound 92] | 2 nM |  |  |  |  | 22.6 nM
YXEGTFTSDYSIXLEKQAEXAFVRHLINKXTRQRY (Aib at 2, 13, 20, 30; Lys29 epsilon-amino: C20DA-gGlu-gGlu-gGlu-gGlu-gGlu-gGlu-eLys; C-terminal amide) [Compound 104] | 12.9 nM | 17.5 nM | 2 nM |  |  | 129 nM
YXEGTFTSDYSIXLEKQAQXEFVRHLINKXTRQRY (Aib at 2, 13, 20, 30; Lys29 epsilon-amino: C20DA-gGlu-gGlu-gGlu-gGlu-gGlu-gGlu-eLys; C-terminal amide) [Compound 149] | 3.3 nM |  |  |  |  | 166 nM
YXEGTFTSDYSIXLEKQAQXAFVRHLINKXTRQXY (Aib at 2, 13, 20, 30; bhArg at 34; Lys29 epsilon-amino: C18DA-gGlu-gGlu-gGlu-gGlu-gGlu-gGlu-eLys; C-terminal amide) [Compound 146] |  | 51.5 nM | 1 nM |  |  | 89.8 nM
YXEGTFTSDYSIXLEEQAQXAFVRHLINKXTRQRY (Aib at 2, 20, 30; aMeL at 13; Lys29 epsilon-amino: C20DA-gGlu-gGlu-gGlu-gGlu-gGlu-gGlu-eLys; C-terminal amide) [Compound 89] | 1.7 nM |  | 0.2 nM |  | 0.9 nM | 
Y[Aib]EGTFTSDYSI[Aib]LEKQAE[Aib]AFVRHLINK([εLys-AEEA-γGlu-γGlu-γGlu-γGlu-γGlu-C20 diacid])[Aib]TRQRY-NH2 [Compound 161] | 5 nM |  | 2 nM |  |  | 
Y[Aib]EGTFTSDYSI[Aib]LEKQAQ[Aib]AFVRHLINK([γGlu-γGlu-γGlu-γGlu-γGlu-γGlu-C18 diacid])[Aib]TRQRY-NH2 [Compound 134] | 4 nM |  | 1 nM |  |  | 
